In paper PMC13645619:

Experiments:
[1] = biological target: AP-7-168-stabilized β2AR dimer (construct PN1) (UniProt P07550); assay: BLI
[2] = biological target: β2-adrenergic receptor (β2AR), construct PN1, monomeric (UniProt P07550); assay: BLI

heterotrimeric Gs (Gαsβ1γ2) (from UniProt P63092;P62873;P59768) (complex)
Kd [1]: 3.11 µM
Kd [2]: 1710 nM
